T1: human BMP6 (R&D Systems, Cat #507-BP) (human, UniProt P22004 375-513, limits assumed)
T1 construct: Bought protein (R&D Systems 507-BP or 507-BP/CF); also called hBMP6; hBMP-6
T1 sequence: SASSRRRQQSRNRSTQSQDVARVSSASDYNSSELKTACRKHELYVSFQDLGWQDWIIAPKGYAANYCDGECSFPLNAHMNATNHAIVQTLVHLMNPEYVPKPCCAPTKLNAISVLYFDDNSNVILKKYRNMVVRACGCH


How the values were obtained:
[1] = molecular target: T1, human BMP6 (R&D Systems, Cat #507-BP); assay: SPR (MASS-1), mAb captured on anti-human Fc, hBMP6 in solution, 25 C; 25 C
Procedure: (§1) Equilibrium dissociation constants (KD values) for human and mouse BMP6 binding to purified anti-BMP6 monoclonal antibodies of this invention were determined using a real-time surface plasmon resonance (SPR) biosensor instrument, MASS-1. All binding studies were performed in 10 mM HEPES, 150 mM NaCl, 3 mM EDTA, 1 μg/mL Heparin, and 0.05% v/v Surfactant Tween-20, pH 7.4 (HBS-EHT) running buffer at 25° C. and 37° C. The HCA sensor surface was first derivatized by amine coupling the monoclonal mouse anti-human Fc antibody (GE, #BR100839) and anti-BMP6 monoclonal antibodies were individually captured. Different concentrations of human BMP6 reagents (hBMP6; R&D Systems, Cat #507-BP; 60 nM-0.94 nM; 4-fold serial dilution) or mouse BMP6 (mBMP6; R&D Systems, Cat #6325-BM; 60 nM and 15 nM) prepared in HBS-EHT running buffer were injected over the captured anti-BMP6 monoclonal antibody for 4 minutes at a flow rate of 30 μL/minute, while the dissociation of BMP6 reagent bound to captured anti-BMP6 monoclonal antibody was monitored for 10 minutes in HBS-EHT running buffer. Kinetic association (kₐ) and dissociation (kd) rate constants were determined by fitting the real-time binding sensorgrams to a 1:1 binding model with mass transport limitation using Scrubber 2.0c software. […]

[2] = molecular target: T1, human BMP6 (R&D Systems, Cat #507-BP); assay: SPR (MASS-1), mAb captured on anti-human Fc, hBMP6 in solution, 37 C; calculated with kd fixed at 1.00E-05
Procedure: as §1

[3] = molecular target: T1, human BMP6 (R&D Systems, Cat #507-BP); assay: competition ELISA, antibody titrated against 2.5 nM biot-hBMP6, plate-coated hHJV-hFc as competitor; value below the lower limit of quantitation of 1.25E-09 M
Procedure: These antibody-protein complexes, after a one-hour incubation, were transferred to the microtiter plate coated with hHJV-hFc or hActR2a-hFc. After two hours of incubation at room temperature, the wells were washed, and plate-bound biot-BMP6 was detected with neutravidin conjugated with horseradish peroxidase (HRP) (Thermo Scientific, Cat #31030). The plates were then developed using TMB substrate solution (BD Biosciences, Cat #555214) according to manufacturer's recommendation and absorbance at 450 nm was measured on a Victor X5 plate reader.
Data analysis was performed using a sigmoidal dose-response model within Prism™ software (GraphPad). […] Percent blockade at indicated concentration of the antibody tested was calculated as an indicator of the ability of the antibodies to block the binding of 2.5 nM or 1.5 nM of biot-BMP6 to hHJV-hFc or hActR2a-hFc on the plate, respectively. In the calculation, binding signal of the sample of the constant biot-BMP6 without the presence of the antibody for each assay was referenced as 100% binding or 0% blocking; and the baseline signal of the sample of buffer only without the presence of biot-BMP6 was referenced as 0% binding or 100% blocking.
The isotype control antibody blocked <30% at concentrations up to 300 nM antibody, as expected.

[4] = molecular target: T1, human BMP6 (R&D Systems, Cat #507-BP); assay: SPR (MASS-1), mAb captured on anti-human Fc, hBMP6 in solution, 37 C; 37 C
Procedure: as §1

| Kd [1] [nM] | Kd [2] [nM] | t1/2 [2] [h] | IC50 [3] [nM] | koff [4] [s⁻¹] | Binder |
| --- | --- | --- | --- | --- | --- |
| 0.195 | ≤ 0.24 | ≥ 19.2 |  |  | H4H17871P (antibody, V domains shown, Fully human antibody; also called anti-BMP6 monoclonal antibody; BMP6 antibody of the invention) VH: EVQLVESGGGLVQPGGSLRLSCAASGFTFNNYAMSWVRQAPGKGLEWVSAISGSGDSTYYADSVKGRFTISRDNSKNTLYLQMNSLRAEDTAVYYCAKRSRSSPFDPWGQGTLVTVSS VL: not shown |
|  |  |  | 0.522 | 8.17e-05 | H4H17855P (antibody, V domains shown, Fully human antibody; also called anti-BMP6 monoclonal antibody; BMP6 antibody of the invention) VH: EVQLVESGGGLVQPGGSLRLSCAASGFTFSSYAMSWVRQAPGKGLEWVSAISGSGGRTYYTDSVKGRFTMSRDNSKNTLYLQMNSLRAEDTAVYYCAKRPYNSPFDPWGQGTLVTVSS VL: EIVLTQSPGTLSLSPGEGATLSCRASQSVSSSYLAWYQQKPGQAPRLLIYGASSRATGIPDRFSGSGSGTDFTLTISRLEPEDFVVYYCQHFGGTPFTFGGGTKVEIK |
